# Source: publication PMC3688593, “Cytokine Receptor-Like Factor 1 (CRLF1) Protects against 6-Hydroxydopamine Toxicity Independent of the gp130/JAK Signaling Pathway” (PLoS ONE, 2013)
# B1: cytokine receptor-like factor 1 (CRLF1), full-length, untagged (natural protein, UniProt O75462 38-422, looked up)
# chain: AHTAVISPQDPTLLIGSSLLATCSVHGDPPGATAEGLYWTLNGRRLPPELSRVLNASTLALALANLNGSRQRSGDNLVCHARDGSILAGSCLYVGLPPEKPVNISCWSKNMKDLTCRWTPGAHGETFLHTNYSLKYKLRWYGQDNTCEEYHTVGPHSCHIPKDLALFTPYEIWVEATNRLGSARSDVLTLDILDVVTTDPPPDVHVSRVGGLEDQLSVRWVSPPALKDFLFQAKYQIRYRVEDSVDWKVVDDVSNQTSCRLAGLKPGTVYFVQVRCNPFGIYGSKKAGIWSEWSHPTAASTPRSERPGPGGGACEPRGGEPSSGPVRRELKQFLGWLKKHAYCSNLSFRLYDQWRAWMQKSHKTRNQDEGILPSGRRGTARGPAR
# notes: signal peptide in the construct; cytokine receptor-like factor 1 (CRLF1), untagged full-length open reading frame in pCDH-EF1-MCS-IRES-neo; detected in the conditioned medium as the secreted protein; The 110 kDa band is lost on reduction, so the dimer appears to be disulfide-linked; also called CRLF1-FL; FL
# Biological target: the molecule itself
# Assay: non-reducing versus reducing SDS-PAGE with immunoblot; proteins precipitated from conditioned media of stable SH-SY5Y lines; about 110 kDa band on non-reducing gels, 55 kDa CRLF1 band on reducing gels; blots for CRLF1 and CLCF1
protein,measurement,value
B1,stoichiometry N,2
